Assay results: patent publication US20150337051A1 (MORPHOTEK, published 2015)

T1: Biotinylated TEM1-Fc (murine, UniProt Q9HCU0 18-687 (human entry), limits assumed, biotinylated (sites not given))
T1 construct: Ligand captured on the streptavidin sensor surface in the Biacore analysis; also called rTEM-1-Fc; not shown: Fc portion of a murine gamma heavy chain
T1 sequence (looked up): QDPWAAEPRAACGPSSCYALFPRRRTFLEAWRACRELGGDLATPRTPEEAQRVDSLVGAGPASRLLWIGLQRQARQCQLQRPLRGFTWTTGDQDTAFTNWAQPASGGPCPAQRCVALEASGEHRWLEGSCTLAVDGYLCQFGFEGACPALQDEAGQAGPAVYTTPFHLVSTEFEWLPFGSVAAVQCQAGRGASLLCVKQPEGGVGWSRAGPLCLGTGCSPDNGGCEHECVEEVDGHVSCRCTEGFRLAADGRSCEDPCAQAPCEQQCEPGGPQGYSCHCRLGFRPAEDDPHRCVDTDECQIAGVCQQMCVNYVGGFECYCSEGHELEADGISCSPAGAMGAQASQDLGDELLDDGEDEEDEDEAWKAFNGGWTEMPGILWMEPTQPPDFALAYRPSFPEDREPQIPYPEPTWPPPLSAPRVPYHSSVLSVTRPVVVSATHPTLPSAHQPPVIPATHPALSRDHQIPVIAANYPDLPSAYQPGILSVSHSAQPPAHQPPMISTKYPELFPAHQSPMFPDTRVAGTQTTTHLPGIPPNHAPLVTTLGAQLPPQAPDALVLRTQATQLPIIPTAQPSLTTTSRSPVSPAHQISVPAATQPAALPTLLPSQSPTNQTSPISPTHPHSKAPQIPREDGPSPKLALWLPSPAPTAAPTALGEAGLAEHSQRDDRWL

T2: TEM-1 in a native state on aortic smooth muscle cells (AoSMC) (UniProt Q9HCU0 18-757, limits assumed)
T2 construct: whole, on cells; also called tumor endothelial marker 1; endosialin
T2 sequence (looked up): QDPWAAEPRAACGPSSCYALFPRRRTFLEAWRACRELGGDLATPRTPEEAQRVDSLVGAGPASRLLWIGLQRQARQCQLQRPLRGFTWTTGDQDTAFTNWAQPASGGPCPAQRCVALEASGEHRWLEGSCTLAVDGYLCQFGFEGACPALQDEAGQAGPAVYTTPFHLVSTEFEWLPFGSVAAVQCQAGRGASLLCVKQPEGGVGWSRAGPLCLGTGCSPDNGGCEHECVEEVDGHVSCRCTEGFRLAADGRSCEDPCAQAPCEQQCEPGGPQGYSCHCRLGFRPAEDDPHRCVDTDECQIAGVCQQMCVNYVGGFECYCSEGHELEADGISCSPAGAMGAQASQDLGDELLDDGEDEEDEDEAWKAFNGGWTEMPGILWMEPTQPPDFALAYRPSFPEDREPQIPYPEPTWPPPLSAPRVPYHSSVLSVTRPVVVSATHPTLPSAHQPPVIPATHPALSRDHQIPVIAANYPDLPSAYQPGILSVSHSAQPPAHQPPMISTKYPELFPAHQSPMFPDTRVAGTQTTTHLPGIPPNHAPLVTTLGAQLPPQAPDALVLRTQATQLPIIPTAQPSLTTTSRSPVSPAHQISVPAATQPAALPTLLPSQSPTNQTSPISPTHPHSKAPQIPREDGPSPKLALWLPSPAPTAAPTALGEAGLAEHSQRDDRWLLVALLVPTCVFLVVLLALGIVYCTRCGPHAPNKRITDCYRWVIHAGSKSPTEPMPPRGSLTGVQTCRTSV


Columns and labels:
Biotinylated TEM1-Fc = target: T1, Biotinylated TEM1-Fc; assay: Biacore SPR, biotinylated TEM1-Fc on streptavidin surface, antibody as analyte, 1:1 model
Protocol: Biacore analyses were also performed to determine the affinity of selected isolated TEM-1-specific rat antibodies. For these studies streptavidin-coated sensor surfaces were generated by injecting CAP reagent for 5 minutes at a flow rate of 2 μl/min. Biotinylated TEM1-Fc (10 μg/ml) was injected onto the streptavidin coated sensor surface for 20 sec (Fc2, RL=˜50 RU), 40 sec (Fc3, RL=˜100 RU), and 60 sec (Fc4, RL=˜150 RU) at a flow rate of 25 μl/minute. Rat anti-TEM-1 MAbs were injected for 300 seconds at 0.5 nM, 2 nM, 5 nM, 20 nM, and 50 nM concentrations and the dissociations were monitored for 30 minutes at a flow rate of 25 μl/minute. The sensor surface was regenerated by injecting a CAP kit regeneration solution for 120 sec at a flow rate of 25 μl/minute. The sensorgrams were analyzed using 1:1 binding model.

[1] = target: T2, TEM-1 in a native state on aortic …; assay: flow cytometry on AoSMC, 10 µg/mL antibody, FITC goat anti-rat secondary; cells only 2.5, secondary only 3.5
Protocol: FACS analyses were also performed using aortic smooth muscle cells (AoSMC) and HUVEC cells. Cells were harvested using cell dissociation buffer (Invitrogen, #13151-014), washed twice in PBS and re-suspended at 50,000 cells/100 μL FACS buffer (PBS+2% FBS) in a round bottom 96 well plate. Cells were incubated for 1 hour on ice with the described rat TEM-1-specific antibodies at a concentration of 10 μg/mL, washed and then incubated with FITC-conjugated goat-anti-rat secondary antibodies (dilution 1:100) (Southern Biotech). Prior to analysis, cells were labeled with 7-AAD (BD Biosciences) to allow for the exclusion of nonviable cells. Cells were analyzed on an EasyCyte Flow Cytometer (Guava Technologies). The data in Table 6 indicate that all of the tested antibodies bind TEM-1 in a native state.

Kd (Biotinylated TEM1-Fc) | koff (Biotinylated TEM1-Fc) | kon (Biotinylated TEM1-Fc) | Geometric mean of resulting FACS plot [1] | Binder
2.03 pM | 1.34e-07 s⁻¹ | 65900 M⁻¹ s⁻¹ | 63.4 | Antibody 7D3 (antibody, V domains shown, Rat monoclonal antibody from hybridoma, IgG2a/kappa; also called 7D3.F5.E8.D8; ATCC PTA-12538) VH: EVQLVESGGGLVQPKGSLKLSCAASGFDFKTYAMSWVRQAPGKGLDWIVTISTKGHNYATLYADSVKERFTISRDDSQSMVYLQMNNLKTEDTALYYCTVAGYNFDYWGQGVMVTVSS VL: DVVLTQTPSILSATIGQSVSISCRSSQSLLDSDGNTYLYWFLQRPGQSPQRLIYLVSNLGSGVPNRFSGSGSGTDFTLKISGVEAGDLGVYYCMQATHAPFTFGSGTKLEIK
0.0279 pM | 3.01e-08 s⁻¹ | 1.08e+06 M⁻¹ s⁻¹ | 59.9 | Antibody 7H12 (antibody, V domains shown, Rat monoclonal antibody from hybridoma, IgG1/kappa; also called 7H12.H5.E7; ATCC PTA-12545) VH: EVQLVESGGGLVQPGRSMILSCAASGFTFSNFDMAWVRQAPKMGLEWVATITYDGSRTNYRDSVKGRFTISRDSAKNTLYLQMDSLTSEDTATYYCARHGSSYYWFFDFWGPGTMVTVSS VL: ETVMTQSPTSMPTSIGERVTLNCKASQSVGINVDWYQQTPGQSPKLLIYTASNRHTGVPDRFAGSGSGRDFTLTISNVEAEDLVVYYCLQYGSLPFTFGAGTKLELK
– | – | – | 57.4 | Antibody 9G5 (antibody, V domains shown, Rat monoclonal antibody from hybridoma, IgG1/kappa; also called 9G5.F2.C1.F4; anti-TEM-1 clone 9G5) VH: EVKLEESGGGLVQPGMSVKLSCATSGFTFSDYWMEWVRQAPGKGLEWVAEIRNKLNNYVTNYGKPVRGRFTISRDDSKSIVYLQVNSIRSEDTGIYYCTRIQRVITTGEYFDYWGQGVMVTVSS VL: DIQMTQSPSLLSASEGDRVTLSCKASQNIYKYLNWYQQKLGEAPKLLIYNINNLQTGIPSRFSGSGSGTDFTLTISSLQPEDVATYYCYQYNSGRAFGGGTKLELK
106 pM | 0.000105 s⁻¹ | 993000 M⁻¹ s⁻¹ | 86.4 | Antibody 15D10 (antibody, V domains shown, Rat monoclonal antibody from hybridoma, IgG2a/kappa; also called 15D10.G4.C12; ATCC PTA-12543) VH: QVQLMESGPGLVQPSETLSLTCTVSGFSLTNYNIHWVRQPPGKGLEWMGLMWSGGNTDYNSALKSRLTISRDTSKNQVFLKMNSLQSEDTTTYYCARDSGYGEGRLDYWGQGVMVTVSS VL: DIVLTQAPLSVSVTPGESASISCRSSKSLLGSKGINFLYWYLQKPGKSPQLLIYRMSNLASGVPDRFSGSGSETDFILKISKVETEDVGVYYCAQFLEYPNSFGAGTKLELK
0.222 pM | 1.65e-07 s⁻¹ | 742000 M⁻¹ s⁻¹ | 72.5 | Antibody 15F8 (antibody, V domains shown, Rat monoclonal antibody from hybridoma, IgG2a/kappa; also called 15F8.G6.B4; ATCC PTA-12540) VH: EVQLVESGGGLVQPGRSMKLSCSASGFTFRNYYMAWVRQAPTRGLEWVASTGTGGDFTYYRDSVKGRFTISRDTAENTLYLQMDSLRSEDTATYYCARAYGYFDYWGQGVKVTVSS VL: DIVLTQSPTTLSVTPGETVSLSCRASHSVGTNLHWYQQKPNESPRLLIKYVSQSNSGIPSRFSASGSGTDFTLNIKNVEFNDVSSYFCQQTQSWPLTFGAGTKLEIK
0.0131 pM | 1.07e-08 s⁻¹ | 810000 M⁻¹ s⁻¹ | 98 | Antibody 16D2 (antibody, V domains shown, Rat monoclonal antibody from hybridoma, IgG2a/kappa; also called 16D2.H12.E7.G9; ATCC PTA-12544) VH: EVQLVESGGGLVQPGRSMKLSCSASGFIFRNYYMAWVRQAPTKGLEWVASTGTGGDFTYYRDSVKGRFTISRDTAESTLYLQMDSLKSEDTATYYCARAYGYFDYWGQGVKVTVSS VL: DIVLTQSPTTLSVTPGETVSLSCRASHSVGTNLHWYQQKTNESPRLLIKYVSQSNSGIPSRFSASGSGTDFTLNIKDVEFDDVSSYFCQQTQSWPLTFGSGTKLEIK
21.6 pM | 1.84e-05 s⁻¹ | 850000 M⁻¹ s⁻¹ | 89.9 | Antibody 9A5 (antibody, V domains shown, Rat monoclonal antibody from hybridoma, IgG2a/kappa; also called 9A5.G12.B10.F8.F6; ATCC PTA-12542) VH: EVQLVESGGGLVQPGRSMKLSCAASGFTFRNYYMAWVRQAPTRGLEWVASTGSGGDFTYYRDSVKGRFTISRDTAENTLYLQMDSLRSEDTATYYCARAYGYFDYWGQGVRVTVSS VL: DIVLTQSPTTLSVTPGETVSLSCRASHSVGTNLHWYQQKTNESPRLLIKDASQSMSGIPSRFSASGSGTDFTLNIKNVEFDDVSSYFCQQTQSWPLTFGSGTKLEIK
240 pM | 9.57e-05 s⁻¹ | 400000 M⁻¹ s⁻¹ | 46.3 | Antibody 11D1 (antibody, V domains shown, Rat monoclonal antibody from hybridoma, IgG2a/kappa; also called 11D1.G10.F8; ATCC PTA-12541) VH: EVQLVESDGGLVQPGRSLKLSCAASGFSFSDYYMAWVRQAPTKGLEWVATISYDGSGSYYRDSVKGRFTVSRDNAKTTLYLQMDSLRSEDTATYYCARGGGLDYWGQGVMVTVSS VL: DNVLTQAPLAVSVTPGESASISCRSSKSLLSIEGINSLYWYLQKPGKSPQLLLFRMSNLASGVPDRFSGSGSETDFTLKISQVETEDVGVYYCAQFLEFPFTFGSGTKLEIK
– | – | – | 94.2 | Antibody 14G3 (antibody, V domains shown, Rat monoclonal antibody from hybridoma, IgG2a/kappa; also called 14G3.H4.F11.H7; ATCC PTA-12539) VH: EVQLVEFGGGLVQPGRSLKLSCAASGFTFSDYNLAWVRQAPKKGLEWVATISYNGSEIYYRDSVKGRFTISRDNAKNTLYLQMDSLRSEDTATYYCARHWREYYSSYSSYVMDAWGQGASVTVSS VL: DIVMTQTPSSQAVSAGAKVTLSCKSSQSLLYNKNKKNYLAWYQQKPGQSPKLLIYWASTRESGVPDRFIGSGSGTDFTLTISSVQAEDLAIYYCQQYYTFPTFGAGTKLELK
– | – | – | 52.7 | Antibody 10H8 (antibody, V domains shown, Rat monoclonal antibody from hybridoma, IgG2a/kappa; also called 10H8.D7.E3; ATCC PTA-12546) VH: QVQLKESGPGLVQPSQTLSLTCTVSGFSLTNYNIHWVRQPPGKGLEWMGAIWSGGSADYDSALKSRLSISRDTSKSQVFLKMDNLQTEDTAIYYCTRDQLGGWYFDFWGPGTKVTVSS VL: DIVMTQTPSSQAVSAGEKVTMSCTSGQSLLYNENNKNYLAWYQLKPGQSPRLLIYWASTRESGVPDRFIGSGSGTYFTLTISSVQAEDLAVYYCQQYFRFPRTFGGGTKLELK
